Measurements: patent publication US20160002318A1
Positions count from the first letter of the chain named.

B1: CR11035 (antibody, V domains shown)
VH: QVQLVQSGAEVKKPGSSVKVSCKTSGYAFNGYGISWVRQAPGQGLEWVAWINTYKVNTHYAQNLRGRVTVSIDTSTTTAYMELRSLRSDDTAVYYCARDWGGPFGNAFDFWGQGTMVTVSS
VL: DIQMTQSPSSLAASIGDSVTITCRASQSVGSYLNWYQQKPGKAPKLLIYGASNVQSGVPSRFSGSESGTESTLTINNLQPEDSATYYCQQSYSTPRTFGQGTKVEIK
B2: CR10023 (antibody, V domains shown)
VH: EVQLVETGGGLVQPGRSLRLSCAASGFTFDDYAMHWVRQAPGKGLEWVSGINWVSTTMGYADSVKGRFTISRDNAKNSLYLQMNSLRAEDTALYYCAKDRLESAAIDILEGGTFDIRGQGTMVTVSS
VL: QSALTQPPSASGSPGQSVTISCTGTSSDVGGYNYVSWYQQHPGKAPKLMIYDVSKRPSGVPDRFSGSKSGNTASLTISGLQAEDEAEYYCSSYASGSTYVFGTGTKVTVL
B3: CR11039 (antibody, V domains shown)
VH: EVQLVQSGAEVKKPGESVKISCKTSGYAFTGYGISWVRQAPGQGLEWMGWINTYKFNTNYAQNLQGRVTMTIDTSTSAAYMELRSLRYEDTAVYFCARDWAGPFGNAFDVWGQGTMVTVSS
VL: IQMTQSPSSLSASIGDRVAITCQASQDISDYLNWYQQQPGKAPKLLLYGASNLETGVPSRFSGSGSGTDFTFTISSLQPEDIATYYCQQYGNLPPTFGGGTKLEIK
B4: CR8059 (antibody, V domains shown)
VH: EVQLVQSGAEVKKPGASVRVSCRASGYIFTESGITWVRQAPGQGLEWMGWISGYSGDTKYAQKLQGRVTMTKDTSTTTAYMELRSLRYDDTAVYYCARDVQYSGSYLGAYYFDYWSPGTLVTVSS
VL: SYVLTQPPSASGTPGQRVTISCSGSSSNIGTNYVYWYQQFPGTAPKLLIYRSYQRPSGVPDRFSGSKSGSSASLAISGLQSEDEADYYCATWDDSLNGWVFGGGTKLTVL
B5: CR8071 (antibody, V domains shown)
VH: B4 VH with E1Q
VL: QSVLTQPPSASGTPGQRVTISCSGSSSNIGTNYVYWYQQFPGTAPKLLIYRSYQRPSGVPDRFSGSKSGSSASLAISGLQSEDEADYYCATWDDSLDGWVFGGGTKLTVLR
B6: CR11036 (antibody, V domains shown)
VH: EVQLVQSGAEVKKPGASVTVSCKASGYAFTSYYLHWVRQAPGQGLEWMGIMNLHGGSTTYAQKFQGRVTMTRDTSTRTVYMELSGLRSEDSAVYYCARESPDSSGYPGYYGMDVWGQGTTVTVSS
VL: EIVLTQSPGTLSLSPGERATLSCRASQSVSSDFFAWYQQKRGQTPTLLIYGTSTRATGIPDRFSGSGSGTDFTLSVARLEPEDFAVYYCQQYGSSTWTFGQGTKVEIK
B7: CR11038 (antibody, V domains shown)
VH: B6 VH with Q6E, T19K, L53P, R77S, G85S, S91T
VL: SYELTQPPSASGTPGQRVTMSCSGSRSNIGSNPVSWFQQLPGMVPKLLIYTNDQRPSGVPDRFSGSKSGPSASLAISGLQSEDEADYYCAAWDDSLKGWVFGGGTKLTVL
B8: CR8034 (antibody, V domains shown)
VH: EVQLVETGGGLVQPGRSLRLSCAASGFTFDEYIMHWVRQAPGKGPEWVAGINWKGNFMGYADSVQGRFTISRDNAKNSLYLQMNSLRADDTALYYCAKDRLESSAMDILEGGTFDIWGQGTMVTVSS
VL: DIQMTQSPSSLSASVGDRVTITCRASQGIRNDLGWYQQKPGKAPKRLIYAASSLQSGVPSRFSGSGSGTDFTLTISSLQPEDFATYYCQQANTYPLTFGGGTKLEIK
B9: CR8035 (antibody, V domains shown)
VH: B8 VH with T7S
VL: SSELTQDPAVSVALGQTVRITCQGDSLRSYYASWYQQKPGQAPVLVIYGKNNRPSGIPDRFSGSSSRNTASLTITGAQAEDEADYYCDSRDSSGTHYVFGGGTKVTVL
B10: CR8032 (antibody, V domains shown)
VH: B8 VH with T7S, T28S, P45L, A75G, D89E
VL: QSALTQPASVSGSPGQSITISCTGTRRDVGDYKYVSWYQQHPGKAPKLMIYDVSNRPSGVSNRFSGSKSGTTASLTISGLQAEDEADYYCSSYTTSNTRVFGGGTKLTVL
B11: CR8031 (antibody, V domains shown)
VH: EVQLVESGGGLVQPGRSLRLSCAASGFTFDEYIMHWVRQAPGKGPEWVAGINWKGNFMGYADSVQGRFTISRDNAKNSLYLQMNSLRADDTALYYCAKDRLESSAMDILEGGTFDIWGQGTMVT
VL: QSALTQPASVSGSPGQSITISCTGTSSDVGGYNYVSWYQQHPGKAPKLMIYDVSSRPSGVSNRFSGSKSGDTASLSISGLQAEDEADYYCSSYTSSSTHVFGTGTKVTVL
B12: CR8033 (antibody, V domains shown)
VH: B11 VH with S7T, T28S, I33T, P45L, A75G, D89E
VL: EIVLTQSPGTLSLSPGERATLSCRASQSVSSSYLAWYQQKPGQAPRLLIYGASTRATGIPARFSGSGSGTDFTLTISRLEPEDLAVYYCQQYGSSPWTFGQGTKVEIK

What was measured:
Assay in all cases: cell-based or functional assay
[1] = target: HA of influenza B virus B/Brisbane/60/2008 (live virus) (influenza B virus B/Brisbane/60/2008)
[2] = target: HA of influenza B virus B/Florida/04/2006 (live virus) (influenza B virus B/Florida/04/2006)
[3] = target: HA of influenza B virus B/Harbin/7/1994 (live virus) (influenza B virus B/Harbin/7/1994)
[4] = target: HA of influenza B virus B/Malaysia/2506/2004 (live virus) (influenza B virus B/Malaysia/2506/2004)

Row | Binder | HI titers [1] | VNA titers [1] | HI titers [2] | VNA titers [2] | VNA titers [3] | VNA titers in µg/ml (*assay was done with 25 TCIDs) [4] | HI titers [3] | HI titers [4]
1 | B1 | 0.26 µg/mL | 0.93 µg/mL | > 10 µg/mL | < 0.06 µg/mL | 0.16 µg/mL | 0.53 µg/mL |  | 
2 | B2 | > 50 µg/mL | 7.07 µg/mL | 1.56 µg/mL | < 0.55 µg/mL | 0.26 µg/mL | 12.5 µg/mL | 1.1 µg/mL | > 50 µg/mL
3 | B3 | 0.44 µg/mL | < 0.14 µg/mL | 0.63 µg/mL | < 0.06 µg/mL | 0.02 µg/mL | 0.06 µg/mL |  | 
4 | B4 | > 50 µg/mL | 4.55 µg/mL | > 50 µg/mL | 3.23 µg/mL | 2.39 µg/mL | 17.7 µg/mL | > 50 µg/mL | > 50 µg/mL
5 | B5 | > 50 µg/mL | 3.72 µg/mL | > 50 µg/mL | 2.12 µg/mL | 2.34 µg/mL | 14.9 µg/mL | > 50 µg/mL | > 50 µg/mL
6 | B6 | > 10 µg/mL | < 0.14 µg/mL | > 10 µg/mL | < 0.06 µg/mL | 0.02 µg/mL | 0.22 µg/mL |  | 
7 | B7 | 0.31 µg/mL | 0.55 µg/mL | 1.25 µg/mL | < 0.06 µg/mL | 0.05 µg/mL | 2.1 µg/mL |  | 
8 | B8 |  |  |  | 0.12 µg/mL | 0.29 µg/mL | 2.31 µg/mL |  | 
9 | B9 |  |  |  | 0.66 µg/mL | 0.66 µg/mL | 4.46 µg/mL |  | 
10 | B10 |  |  |  | 0.69 µg/mL | 0.69 µg/mL | 3.88 µg/mL |  | 
11 | B11 |  |  |  | 0.88 µg/mL | 1.24 µg/mL | > 50 µg/mL |  | 
12 | B12 | > 50 µg/mL | 5.95 µg/mL | 0.22 µg/mL | 0.02 µg/mL | 0.03 µg/mL | 0.88 µg/mL | 0.39 µg/mL | > 50 µg/mL
